Patent US20220313607A1

What was measured:
[1] = biological target: Human Beta-Amyloid (1-40) (human); assay: cell-based or functional assay
[2] = biological target: Recombinant TTR variant TTR_S52P; assay: cell-based or functional assay
[3] = biological target: Recombinant β2-microglobulin variant β2m_D76N (Pongo pygmaeus (Bornean orangutan)) (UniProt P16213); assay: cell-based or functional assay
[4] = biological target: Recombinant β2-microglobulin variant β2m_ΔN6 (Pongo pygmaeus (Bornean orangutan)) (UniProt P16213); assay: cell-based or functional assay
[5] = biological target: Truncated amyloidogenic form of Serum Amyloid A, SAA(1-76) (Homo sapiens (Human)) (UniProt P0DJI8); assay: cell-based or functional assay
UniProt P0DJI8, sequence (P0DJI8 other isoform, or with tags, fused parts or gaps limits assumed): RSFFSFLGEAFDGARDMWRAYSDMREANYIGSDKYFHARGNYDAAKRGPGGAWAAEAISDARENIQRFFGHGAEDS

[6] = biological target: Human Beta-Amyloid (1-40) (human); assay: SPR (ProteOn), Amyposomes flowed over immobilised fibrils; concentration as exposed PA; Aβ1-40 fibrils
[7] = biological target: Recombinant TTR variant TTR_S52P; assay: SPR (ProteOn), Amyposomes flowed over immobilised aggregates; concentration as exposed PA; TTR aggregates

Human Beta-Amyloid (1-40) (human), sequence (peptide, as listed by the source): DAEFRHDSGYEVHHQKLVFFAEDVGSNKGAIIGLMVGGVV

With “Amyposomes (liposomes composed of sphingomyelin/cholesterol, functionalized with phosphatidic acid and with mApoE peptide covalently linked to the outer surface)” the ThT fluorescence, residual aggregates after 24 h, peptide:Amyposomes 1:50 [1] was 40%, the ThT fluorescence, residual aggregates after 5 days, peptide:Amyposomes 1:50 [1] was 10% and the ThT fluorescence, aggregation with respect to protein alone, TTR:Amyposomes 1:50 [2] was 40%. For the same substance, the ThT fluorescence, residual aggregates after 5 h, TTR:Amyposomes 1:50 [2] was 5%, the ThT fluorescence, final aggregation extent with respect to protein alone, D76N:Amyposomes 1:50 [3] was 36% and the ThT fluorescence, residual aggregates after 3 days, protein:Amyposomes 1:30 and 1:50 [3] was 15%. It also gave a ThT fluorescence, aggregation extent with respect to protein alone, protein:Amyposomes 1:50 [4] of 20%, a ThT fluorescence, residual aggregates, protein:Amyposomes 1:50 [4] of 50% and a ThT fluorescence, residual aggregates after 72 h, protein:Amyposomes 1:50 [5] of 30%. The Kd [6] was 0.12 µM and the Kd [7] was 14.2 µM.
